Publication PMC6077249, “Insights into Centromere DNA Bending Revealed by the Cryo-EM Structure of the Core Centromere Binding Factor 3 with Ndc10”

Experiments:
[1] = biological target: Cep3ΔN (Saccharomyces cerevisiae, UniProt P40969 47-608); assay: EMSA; DNA 1.6 uM; EMSA: 25 mM HEPES pH 8.0, 200 mM KCl, 2 mM DTT, 10% glycerol, 0.02% NP-40, 10 mM MgCl2, 10 uM ZnCl2; room temperature 45 min; native PAGE at 4 C; settings: protein: recombinant; tags: N-terminal His; chain copies: 2; label: fluorescent label, singly or doubly labeled
[2] = biological target: T1, Ctf13;Skp1;Cep3ΔN (Saccharomyces cerevisiae;Saccharomyces …, UniProt P35203;P52286;P40969 1-478;1-194;47-608, ||); assay: as above; settings: protein: recombinant;recombinant;recombinant; tags: C-terminal CBP;;N-terminal His; copies: 1;1;2; label: fluorescent label, singly or doubly labeled
[3] = biological target: Cep3 full length (Saccharomyces cerevisiae, UniProt P40969 1-608); assay: EMSA; DNA 1.6 uM, protein 6.4 uM; binds tightly; EMSA: 25 mM HEPES pH 8.0, 200 mM KCl, 2 mM DTT, 10% glycerol, 0.02% NP-40, 10 mM MgCl2, 10 uM ZnCl2; room temperature 45 min; native PAGE at 4 C; settings: protein: recombinant; tags: N-terminal His; chain copies: 2; label: fluorescent label, singly or doubly labeled
[4] = biological target: T1, Ctf13;Skp1;Cep3ΔN; assay: competition; 80 uM unlabeled competitor, 50x; competes labeled CDEIII; EMSA: 25 mM HEPES pH 8.0, 200 mM KCl, 2 mM DTT, 10% glycerol, 0.02% NP-40, 10 mM MgCl2, 10 uM ZnCl2; room temperature 45 min; native PAGE at 4 C; settings: protein: recombinant;recombinant;recombinant; tags: C-terminal CBP;;N-terminal His; copies: 1;1;2

T1 sequence (P35203 whole entry, stated change not applied, chain 1 of 3): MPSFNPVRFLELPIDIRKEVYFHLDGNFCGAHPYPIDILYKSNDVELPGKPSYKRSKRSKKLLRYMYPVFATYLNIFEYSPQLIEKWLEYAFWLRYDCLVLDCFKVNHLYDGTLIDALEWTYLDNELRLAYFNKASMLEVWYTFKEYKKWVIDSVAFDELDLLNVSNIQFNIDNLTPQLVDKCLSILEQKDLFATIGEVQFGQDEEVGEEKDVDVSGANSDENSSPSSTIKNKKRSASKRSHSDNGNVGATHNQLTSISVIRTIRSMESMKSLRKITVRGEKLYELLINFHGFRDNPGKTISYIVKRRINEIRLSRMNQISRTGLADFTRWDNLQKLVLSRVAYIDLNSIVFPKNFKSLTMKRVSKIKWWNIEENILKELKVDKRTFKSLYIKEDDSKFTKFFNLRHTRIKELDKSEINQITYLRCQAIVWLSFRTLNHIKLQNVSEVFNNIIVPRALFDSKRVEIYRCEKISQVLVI
T1 sequence (P52286 whole entry, stated change not applied, chain 2 of 3): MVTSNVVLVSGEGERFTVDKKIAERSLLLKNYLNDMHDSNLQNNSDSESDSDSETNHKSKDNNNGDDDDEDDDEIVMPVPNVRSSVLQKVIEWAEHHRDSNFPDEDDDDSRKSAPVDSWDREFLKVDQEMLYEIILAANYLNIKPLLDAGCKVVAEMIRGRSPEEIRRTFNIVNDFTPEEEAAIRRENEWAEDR
T1 sequence (P40969 47-608, stated change not applied, chain 3 of 3): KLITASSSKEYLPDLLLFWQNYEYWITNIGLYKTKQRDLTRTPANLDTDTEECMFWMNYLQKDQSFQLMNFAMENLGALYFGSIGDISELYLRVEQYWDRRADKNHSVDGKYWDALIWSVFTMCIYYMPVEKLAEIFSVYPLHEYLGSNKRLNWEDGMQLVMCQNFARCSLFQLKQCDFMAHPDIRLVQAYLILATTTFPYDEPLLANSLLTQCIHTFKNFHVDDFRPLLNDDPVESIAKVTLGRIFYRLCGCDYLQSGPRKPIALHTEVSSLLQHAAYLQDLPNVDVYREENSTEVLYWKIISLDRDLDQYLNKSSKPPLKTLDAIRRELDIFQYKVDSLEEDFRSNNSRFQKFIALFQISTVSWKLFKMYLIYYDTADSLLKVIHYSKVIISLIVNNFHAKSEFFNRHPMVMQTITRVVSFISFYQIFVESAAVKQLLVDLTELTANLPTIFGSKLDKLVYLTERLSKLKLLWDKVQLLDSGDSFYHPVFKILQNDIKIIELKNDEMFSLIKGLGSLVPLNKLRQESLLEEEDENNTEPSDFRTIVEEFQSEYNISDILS
Chain of Cep3ΔN (P40969 47-608, stated change not applied): as the sequence (P40969 47-608, stated change not applied, chain 3 of 3) above
Chain of Cep3 full length (P40969 whole entry): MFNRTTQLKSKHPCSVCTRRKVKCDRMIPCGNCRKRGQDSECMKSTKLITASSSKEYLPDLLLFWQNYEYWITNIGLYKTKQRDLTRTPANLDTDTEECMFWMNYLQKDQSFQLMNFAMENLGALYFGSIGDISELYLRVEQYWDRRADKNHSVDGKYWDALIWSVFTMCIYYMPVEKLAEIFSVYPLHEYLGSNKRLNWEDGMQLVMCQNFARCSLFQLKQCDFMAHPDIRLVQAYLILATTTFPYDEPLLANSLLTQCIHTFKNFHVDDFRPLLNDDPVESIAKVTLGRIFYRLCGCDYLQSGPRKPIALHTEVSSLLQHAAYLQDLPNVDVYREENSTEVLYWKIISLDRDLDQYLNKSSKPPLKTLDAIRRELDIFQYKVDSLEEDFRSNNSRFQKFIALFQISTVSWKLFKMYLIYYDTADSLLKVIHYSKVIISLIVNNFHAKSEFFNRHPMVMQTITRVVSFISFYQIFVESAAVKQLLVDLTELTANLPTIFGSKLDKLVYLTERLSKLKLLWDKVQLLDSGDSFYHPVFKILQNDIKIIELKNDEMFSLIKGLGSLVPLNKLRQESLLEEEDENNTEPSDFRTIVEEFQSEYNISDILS

| Binder | binding result [1] | binding result [2] | binding result [3] | binding result [4] |
| --- | --- | --- | --- | --- |
| CDEIII labeled (dsDNA) DNA 1: AATATTAGTGTATTTGATTTCCGAAAGTTAAA DNA 2: TTTAACTTTCGGAAATCAAATACACTAATATT | no binding | binds | binds | – |
| CDEIII unlabeled competitor (dsDNA) DNA 1: AATATTAGTGTATTTGATTTCCGAAAGTTAAA DNA 2: TTTAACTTTCGGAAATCAAATACACTAATATT | – | – | – | binds |
